We go through two molecules from article PMC10511320, “R-loop-dependent promoter-proximal termination ensures genome stability”.

Series [1] deals with T1, SSB1 (human, UniProt Q9BQ15 1-211). In words: EMSA; ED Fig. 2a ssDNA taken as (dT)48, the only listed ssDNA oligo; EMSA: 100 nM Cy3 probe, 20 mM Tris-HCl pH 7.5, 50 mM NaCl, 5 mM MgCl2, 0.2 mM EDTA, 1 mM DTT, on ice 30 min; 6% native PAGE, 0.5x TBE, cold room. The following applies: protein: recombinant; label: 3' Cy3.
Series [2] has as its target T1, SSB1. In words: EMSA; EMSA: 100 nM Cy3 probe, 20 mM Tris-HCl pH 7.5, 50 mM NaCl, 5 mM MgCl2, 0.2 mM EDTA, 1 mM DTT, on ice 30 min; 6% native PAGE, 0.5x TBE, cold room. The following applies: protein: recombinant; blunt. (A gel shift assay detects complexes by their altered migration in electrophoresis.)

T1 sequence (Q9BQ15 whole entry): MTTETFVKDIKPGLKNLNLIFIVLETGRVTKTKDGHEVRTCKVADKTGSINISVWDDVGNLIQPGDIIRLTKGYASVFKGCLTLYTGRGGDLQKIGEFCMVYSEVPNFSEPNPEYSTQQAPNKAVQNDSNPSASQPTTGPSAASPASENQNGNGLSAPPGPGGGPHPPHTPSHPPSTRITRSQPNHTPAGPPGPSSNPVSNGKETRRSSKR

With TTTTTTTTTTTTTTTTTTTTTTTTTTTTTTTTTTTTTTTTTTTTTTTT (ssDNA) [oligo (dT)48], the binding result with SSB1 [1] is recorded as “binds”.

B1: Blunt-end dsDNA (30 bp) random (dsDNA)
DNA 1: GAGCTACCAGCTACCCCGTATGTCAGAGAG
DNA 2: CTCTCTGACATACGGGGTAGCTGGTAGCTC
For the molecule B1, the binding result with SSB1 [2] is recorded as “no binding”.
